Laboratory results reported in publication PMC2688732.

Target: C-reactive protein (CRP) (human) (UniProt P02741)
Experiment: SPR

Sequence of UniProt P02741 (P02741 19-224): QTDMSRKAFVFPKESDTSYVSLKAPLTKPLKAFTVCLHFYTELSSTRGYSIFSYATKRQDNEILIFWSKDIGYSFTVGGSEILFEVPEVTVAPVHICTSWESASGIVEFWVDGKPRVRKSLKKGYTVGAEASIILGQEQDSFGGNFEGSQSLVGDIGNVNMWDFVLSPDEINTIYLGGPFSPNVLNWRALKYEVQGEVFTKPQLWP

Kd: 1900 nM
Substance: extracellular domain of FcγRIIa (from UniProt P12318 34-204) (receptor)
